Here are results for four substances from article PMC11742849.

This assay deals with recombinant mouse TfR extracellular domain protein (UniProt Q62351). In words: ELISA. The conditions noted are these: ligand concentration 20 nM (est. from x axis); mTfR coated on plate; signal normalized to each construct's own maximum; parent: est. 78; read off a plot.
Chain of UniProt Q62351 (Q62351 89-763): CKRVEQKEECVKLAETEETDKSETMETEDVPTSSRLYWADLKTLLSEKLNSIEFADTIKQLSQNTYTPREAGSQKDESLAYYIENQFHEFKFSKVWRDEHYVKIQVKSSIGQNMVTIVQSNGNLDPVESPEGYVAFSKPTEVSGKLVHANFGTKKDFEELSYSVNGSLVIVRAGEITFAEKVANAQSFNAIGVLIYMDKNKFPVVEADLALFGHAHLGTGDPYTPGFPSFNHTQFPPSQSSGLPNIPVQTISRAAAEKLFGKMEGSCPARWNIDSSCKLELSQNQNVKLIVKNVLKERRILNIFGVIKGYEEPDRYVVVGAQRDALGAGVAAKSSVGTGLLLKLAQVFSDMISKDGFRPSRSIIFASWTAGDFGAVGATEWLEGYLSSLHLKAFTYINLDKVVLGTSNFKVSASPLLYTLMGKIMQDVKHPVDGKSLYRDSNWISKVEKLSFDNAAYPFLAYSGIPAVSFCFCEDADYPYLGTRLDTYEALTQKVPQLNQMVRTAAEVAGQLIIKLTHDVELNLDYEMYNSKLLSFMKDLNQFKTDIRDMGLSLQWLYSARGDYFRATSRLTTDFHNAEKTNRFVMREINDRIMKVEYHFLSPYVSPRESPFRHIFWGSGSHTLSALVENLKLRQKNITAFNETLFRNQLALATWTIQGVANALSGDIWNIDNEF

Turning to scFc-scFv8D3 H102A, the response (% of own maximum OD450) came out at 17.

Take scFc-scFv8D3 T100V: the response (% of own maximum OD450) was determined as 26. As for scFc-scFv8D3 S101A, the response (% of own maximum OD450) came to 39. Take scFc-scFv8D3 Y103F: the response (% of own maximum OD450) was determined as 24.
